Data: article PMC12500691 (Frontiers in Cellular and Infection Microbiology, 2025)
Where no end group is shown, it is not given here.

T1: SARS-CoV-2 ORF7a (SARS-CoV-2 (Wuhan variant), UniProt P0DTC7 16-96)
T1 construct: also called open reading frame 7a; accessory protein ORF7a; not shown: twin strep tag, N-terminal, kept
T1 sequence: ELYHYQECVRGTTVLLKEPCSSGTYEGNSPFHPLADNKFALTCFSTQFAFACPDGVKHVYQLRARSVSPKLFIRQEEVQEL


Tests used:
SARS-CoV-2 ORF7a = biological target: T1, SARS-CoV-2 ORF7a; assay: SPR; conditions: both partners purified
SARS-CoV-2 ORF8 = biological target: T2, SARS-CoV-2 ORF8 (SARS-CoV-2 (Wuhan variant), UniProt P0DTC8 16-121); assay: negative stain electron microscopy; conditions: both partners purified
T2 construct: also called open reading frame 8; accessory protein ORF8; not shown: twin strep tag, N-terminal, kept
T2 sequence (P0DTC8 16-121): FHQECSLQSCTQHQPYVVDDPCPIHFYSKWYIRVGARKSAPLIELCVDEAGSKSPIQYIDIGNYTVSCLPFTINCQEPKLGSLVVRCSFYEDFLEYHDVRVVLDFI

| Binder | Kd (SARS-CoV-2 ORF7a) [nM] | stoichiometry N (SARS-CoV-2 ORF8) |
| --- | --- | --- |
| LLGDFFRKSKEKIGKEFKRIVQRIKDFLRNLVPRTES (also called synthetic LL-37; human antimicrobial peptide LL-37; source: synthetic peptide, bought: Invivogen) [LL-37] | 138 | – |
| LLGDFFRKSKEKIGKEFKRIVQRIKDFLRNLVPRTES (also: directly conjugated with colloidal gold, also called LL-37 directly conjugated with colloidal gold; source: synthetic peptide, bought: Invivogen; conjugated with colloidal gold) [gold-labeled LL-37] | – | 1 |
